Assay results taken from patent publication US8846866.
Positions count from the first letter of the chain named.

T1: synthetic 13-residue sulfatase consensus motif peptide LCSPSRGSLFTGR
T1 chain: LCSPSRGSLFTGR

B1: Strep FGE Cys272Ser mutant (protein)
chain: AVAAPSPAAAAEPGPAARPRSTRGQVRLPGGEFAMGDAFGEGYPADGETPVHTVRLRPFHIDETAVTNARFAAFVKATGHVTDAERFGSSAVFHLVVAAPDADVLGSAAGAPWWINVRGAHWRRPEGARSDITGRPNHPVVHVSWNDATAYARWAGKRLPTEAEWEYAARGGLAGRRYAWGDELTPGGRWRCNIWQGRFPHVNTAEDGHLSTAPVKSYRPNGHGLWNTAGNVWEWCSDWFSPTYYAESPTVDPHGPGTGAARVLRGGSYLSHDSYCNRYRVAARSSNTPDSSSGNLGFRCANDADLTSGSAAE
B2: Streptomyces coelicolor formylglycine generating enzyme (Strep FGE, SCO7548), recombinant wild type (protein)
chain: B1 chain with S271C
B3: Strep FGE Cys277Ser mutant (protein)
chain: B1 chain with S271C, C276S
B4: Strep FGE Trp234Phe mutant (protein)
chain: B1 chain with W233F, S271C
B5: Mycobacterium tuberculosis formylglycine generating enzyme (Mtb FGE, Rv0712), recombinant wild type (protein)
chain: LTELVDLPGGSFRMGSTRFYPEEAPIHTVTVRAFAVERHPVTNAQFAEFVSATGYVTVAEQPLDPGLYPGVDAADLCPGAMVFCPTAGPVDLRDWRQWWDWVPGACWRHPFGRDSDIADRAGHPVVQVAYPDAVAYARWAGRRLPTEAEWEYAARGGTTATYAWGDQEKPGGMLMANTWQGRFPYRNDGALGWVGTSPVGRFPANGFGLLDMIGNVWEWTTTEFYPHHRIDPPSTACCAPVKLATAADPTISQTLKGGSHLCAPEYCHRYRPAARSPQSQDTATTHIGFRCVADPVSG

Target: T1, synthetic 13-residue sulfatase …

Row | Protein | conversion of cysteine to FGly in the peptide, by mass spectrometry (FGE activity assay)
1 | B1 | serine mutants were unable to generate FGly in vitro
2 | B2 | WT Strep FGE was able to oxidize the synthetic peptide
3 | B3 | serine mutants were unable to generate FGly in vitro
4 | B4 | mutation of Trp234 to Phe did not abolish activity
5 | B5 | Recombinant Rv0712 was able to modify a synthetic peptide containing the sulfatase motif as determined by mass spectrometry
